Consider five substances from patent US20100210478A1, “MAKE AND USE OF SURFACE MOLECULES OF VARIED DENSITIES” (priority 2006, published 2010).

The test system of one data set is T1, peptide YEEIP.
T1 sequence: YEEIP

The next data set has as its system T2, peptide YEEI.
T2 sequence: YEEI

The test system of the next data set is T3, peptide YVPM.
T3 sequence: YVPM

The next data set relates to T4, peptide YEE.
T4 sequence: YEE

A further data set concerns the target T5, Src kinase, p60c-src (Homo sapiens, UniProt P12931).
T5 construct: purchased Invitrogen
Put plainly: protein kinase reaction on peptide chip, phosphorylation detected by cy3-Pro-Q staining. Conditions: pH7.5, 0.07 mM ATP, 25° C. for 30 min. The class given is biochemical. From the text:
FIG. 8 is a fluorescence image of a protein kinase reaction on pY-phosphopeptide chip. The experiment used Src kinase, p60c-src (Invitrogen). The chip included 23 known kinase substrates and their sequence variants, which vary in length and composition, a number of position and negative control sequences, and a few artificial peptide sequences. For each substrate peptide, at the phosphorylation position, Tyr (Y) in YEEI, for instance, three sequences are present, which are YEEI, pYEEI and AEEI. pY-containing sequences are directly synthesized which are reference sequences for the Y-containing sequences (as the substrate for kinase reactions) There are also background sites which contain no peptides. 8-22 redundancies were present. The peptide sequences shown in the image are YVPM (column 1) and the YEEIP (column 2) related sequences in double replicates. These sequences are given on right of the image. […] Kinase reaction conditions and phosphorylation detection were: 10× enzyme storage solution (0.5 mg/ml). 50 ul reaction buffer, pH7.5 (50 HEPES, 0.1 mM EDTA, and 0.01% Brij 35, 0.1 mg/ml BSA, 0.1% beta-mercaptoethanol, 0.07 mM ATP, 10 mM MgCl2), 25° C. for 30 min. The array was stained by filling the array with 200 ul cy3-Pro-Q solution (phosphate staining reagent), standing at room temperature for 20 min. The chip was then washed with 2 ml destaining buffer, pH 4.0 (50 mM […], 20% acetonitrile) as recommended by the vendor. The image was obtained from a regular microarray scanner (Axon GenPix 4000B) and shown using inverted intensities after background subtraction.
The signal intensities were analyzed using the following equation:
Relative phosphorylation efficiency: fP =(IY−IA)/(IpY−IA)
For a peptide, I is the signal intensity, IY is for Y-containing sequence which undergoes phosphorylation by kinase,IpY is for the synthetic phosphopeptide, IA is for the sequence containing Y→A substitution. By using the positive controls (pY-sequence) and negative controls (A-sequence or other non-phosphorylation amino acids) to derive relative phosphorylation efficiency, fp as fraction or percentage, the kinase reaction results were analyzed quantitatively. The method takes the advantage of addressable peptide array for reducing false positive readout and improves reliability of the data analysis.

Src kinase, p60c-src (Invitrogen): the “phosphorylation on peptide chip, cy3-Pro-Q phosphate staining” value in the data set with peptide YEEIP was “YEEIP is a substrate of lower reactivity”; in the data set with peptide YEEI, “YEE and YEEI are phosphorylated by the Sic kinase used”; in the data set on peptide YVPM, “YVPM has the lowest reactivity”; in the data set on peptide YEE it was “YEE and YEEI are phosphorylated by the Sic kinase used”. Turning to YEE, the “phosphorylation by Src kinase (substrate reactivity)” value on Src kinase, p60c-src is “phosphorylated”. For the substance YEEI, the “phosphorylation by Src kinase (substrate reactivity)” value at Src kinase, p60c-src is listed as “phosphorylated”. Still for that read-out and setting: the entry for YEEIP is “substrate of lower reactivity”; for YVPM it is “lowest reactivity”.
